Measurements taken from the RNAGym collection of RNA variant scans (doi:10.7554/elife.90254).

B1: LINE1-full (parent)
chain: UACGUAGGUGGUUUUCCCCUGAUAGUGCUAAGGGGGCCUGGAAGUUUGGACUGGGCAGAGCUCAACACAGCGUGGCAAAGUGGCUGUGGCUAGACUGCCUCUCUGGAUUCCUCGUCACUCAGCAGGGCAUCUCUGAGAGAAAUGCC

Variants of: B1
Experiment: self-cleavage, relative activity (ratio to wild type); higher = more cleavage; in vitro, sequencing; the parent is a self-cleaving ribozyme

| Variant | self-cleavage |
| --- | --- |
| A59U A67G | 0.39 |
| A59U A77G | 1.01 |
| A59U A78G | 0.68 |
| A59U A78U | 1.43 |
| A59U A79C | 1.23 |
| A59U A94G | 1.71 |
| A59U A107G | 1.96 |
| A59U A121U | 0.79 |
| A59U A124G | 0.75 |
| A59U A124U | 0.68 |
| A59U A136U | 0.87 |
| A59U C123U | 0.8 |
| A59U C128U | 1.02 |
| A59U G60A | 0.05 |
| A59U G89A | 0.04 |
| A59U G126A | 0.59 |
| A59U U73A | 0.94 |
| A59U U85A | 0.1 |
| A59U U85C | 0.16 |
| A59U U87A | 0.07 |
| A59U U91C | 0.34 |

| Variant | self-cleavage |
| --- | --- |
| A59U U102C | 0.94 |
| A59U U104C | 1.02 |
| A59U U108C | 1.09 |
| A59U U108G | 0.84 |
| A59U U115C | 1.34 |
| A59U U130C | 0.63 |
| A59U U134G | 1.26 |
| G60A A77G | 0.03 |
| G60A A94C | 0.01 |
| G60A A94G | 0 |
| G60A A107G | 0.03 |
| G60A A121U | 0.1 |
| G60A A124G | 0.05 |
| G60A A138U | 0.05 |
| G60A C61G | 0.04 |
| G60A C68U | 0.03 |
| G60A C111G | 0.02 |
| G60A C111U | 0.04 |
| G60A C113U | 0 |
| G60A C146A | 0.02 |
| G60A G105U | 0.01 |

| Variant | self-cleavage |
| --- | --- |
| G60A G127A | 0.03 |
| G60A G139U | 0.03 |
| G60A U62A | 0.01 |
| G60A U73A | 0.02 |
| G60A U73C | 0.02 |
| G60A U96A | 0.03 |
| G60A U96C | 0.01 |
| G60A U100C | 0.03 |
| G60A U102C | 0.01 |
| G60A U109C | 0.02 |
| G60A U112A | 0.04 |
| G60A U115C | 0.04 |
| G60A U119A | 0.11 |
| G60A U143C | 0 |
| G60C U73C | 0.04 |
| G60C U96A | 0.04 |
| G60U A64U | 0.05 |
| G60U A65U | 0.02 |
| G60U A121C | 0.03 |
| G60U A138G | 0.04 |
| G60U U104C | 0.04 |

| Variant | self-cleavage |
| --- | --- |
| C61A A69U | 0.02 |
| C61A A78G | 0.04 |
| C61A A94G | 0.04 |
| C61A A107G | 0 |
| C61A A124G | 0.04 |
| C61A C123U | 0.03 |
| C61A U62C | 0.08 |
| C61A U102C | 0.05 |
| C61G A77U | 0.04 |
| C61G A124U | 0.11 |
| C61G U85C | 0.15 |
| C61G U100C | 0.06 |
| C61U A65G | 0.06 |
| C61U A67G | 1.08 |
| C61U A77G | 0.06 |
| C61U A94G | 0.06 |
| C61U A117G | 0.05 |
| C61U A124G | 0.04 |
| C61U A124U | 0.03 |
| C61U A129U | 0.02 |
| C61U C76U | 0.04 |
